Source: PMC8960830

Key:
[1] = tested on: S9.6 Fab WT, PDB:7TQB_1+PDB:7TQB_2; experiment: fluorescence polarization; settings: FP: 25 mM Tris-HCl pH 7.5, 50 mM NaCl, 2 mM MgCl2, 21 C, ~5 nM FAM duplex, ITC same buffer at 25 C, SEC-MALS 150 mM NaCl
[2] = tested on: S9.6 Fab WT, PDB:7TQB_1+PDB:7TQB_2; experiment: fluorescence polarization; settings: FP: 25 mM Tris-HCl pH 7.5, 50 mM NaCl, 2 mM MgCl2, 21 C, ~5 nM FAM duplex, ITC same buffer at 25 C, SEC-MALS 150 mM NaCl; remark: listed apart in the source
[3] = tested on: S9.6 Fab WT, PDB:7TQB_1+PDB:7TQB_2; experiment: competition; settings: FP: 25 mM Tris-HCl pH 7.5, 50 mM NaCl, 2 mM MgCl2, 21 C, ~5 nM FAM duplex; ITC same buffer at 25 C; SEC-MALS 150 mM NaCl
[4] = tested on: S9.6 Fab HC_Y54A, PDB:7TQB_1+PDB:7TQB_2; experiment: fluorescence polarization; settings: FP: 25 mM Tris-HCl pH 7.5, 50 mM NaCl, 2 mM MgCl2, 21 C, ~5 nM FAM duplex; ITC same buffer at 25 C; SEC-MALS 150 mM NaCl
[5] = tested on: S9.6 Fab HC_Y54F, PDB:7TQB_1+PDB:7TQB_2; experiment: fluorescence polarization; settings: FP: 25 mM Tris-HCl pH 7.5, 50 mM NaCl, 2 mM MgCl2, 21 C, ~5 nM FAM duplex; ITC same buffer at 25 C; SEC-MALS 150 mM NaCl
[6] = tested on: S9.6 Fab HC_Y54H, PDB:7TQB_1+PDB:7TQB_2; experiment: fluorescence polarization; settings: FP: 25 mM Tris-HCl pH 7.5, 50 mM NaCl, 2 mM MgCl2, 21 C, ~5 nM FAM duplex; ITC same buffer at 25 C; SEC-MALS 150 mM NaCl
[7] = tested on: S9.6 Fab HC_Y54L, PDB:7TQB_1+PDB:7TQB_2; experiment: fluorescence polarization; settings: FP: 25 mM Tris-HCl pH 7.5, 50 mM NaCl, 2 mM MgCl2, 21 C, ~5 nM FAM duplex; ITC same buffer at 25 C; SEC-MALS 150 mM NaCl
[8] = tested on: S9.6 Fab HC_Y54M, PDB:7TQB_1+PDB:7TQB_2; experiment: fluorescence polarization; settings: FP: 25 mM Tris-HCl pH 7.5, 50 mM NaCl, 2 mM MgCl2, 21 C, ~5 nM FAM duplex; ITC same buffer at 25 C; SEC-MALS 150 mM NaCl
[9] = tested on: S9.6 Fab HC_Y54Q, PDB:7TQB_1+PDB:7TQB_2; experiment: fluorescence polarization; settings: FP: 25 mM Tris-HCl pH 7.5, 50 mM NaCl, 2 mM MgCl2, 21 C, ~5 nM FAM duplex; ITC same buffer at 25 C; SEC-MALS 150 mM NaCl
[10] = tested on: S9.6 Fab HC_Y54R, PDB:7TQB_1+PDB:7TQB_2; experiment: fluorescence polarization; settings: FP: 25 mM Tris-HCl pH 7.5, 50 mM NaCl, 2 mM MgCl2, 21 C, ~5 nM FAM duplex; ITC same buffer at 25 C; SEC-MALS 150 mM NaCl
[11] = tested on: S9.6 Fab HC_Y54V, PDB:7TQB_1+PDB:7TQB_2; experiment: fluorescence polarization; settings: FP: 25 mM Tris-HCl pH 7.5, 50 mM NaCl, 2 mM MgCl2, 21 C, ~5 nM FAM duplex; ITC same buffer at 25 C; SEC-MALS 150 mM NaCl
[12] = tested on: S9.6 Fab HC_Y54W, PDB:7TQB_1+PDB:7TQB_2; experiment: fluorescence polarization; settings: FP: 25 mM Tris-HCl pH 7.5, 50 mM NaCl, 2 mM MgCl2, 21 C, ~5 nM FAM duplex; ITC same buffer at 25 C; SEC-MALS 150 mM NaCl
[13] = tested on: S9.6 Fab WT, PDB:7TQB_1+PDB:7TQB_2; experiment: ITC; settings: 2 mM Mg2+, 25 C; FP: 25 mM Tris-HCl pH 7.5, 50 mM NaCl, 2 mM MgCl2, 21 C, ~5 nM FAM duplex; ITC same buffer at 25 C; SEC-MALS 150 mM NaCl
[14] = tested on: S9.6 Fab HC_Y101F, PDB:7TQB_1+PDB:7TQB_2; experiment: fluorescence polarization; settings: FP: 25 mM Tris-HCl pH 7.5, 50 mM NaCl, 2 mM MgCl2, 21 C, ~5 nM FAM duplex; ITC same buffer at 25 C; SEC-MALS 150 mM NaCl
[15] = tested on: S9.6 Fab HC_Y54G, PDB:7TQB_1+PDB:7TQB_2; experiment: fluorescence polarization; settings: FP: 25 mM Tris-HCl pH 7.5, 50 mM NaCl, 2 mM MgCl2, 21 C, ~5 nM FAM duplex; ITC same buffer at 25 C; SEC-MALS 150 mM NaCl
[16] = tested on: S9.6 Fab HC_S31A, PDB:7TQB_1+PDB:7TQB_2; experiment: fluorescence polarization; settings: FP: 25 mM Tris-HCl pH 7.5, 50 mM NaCl, 2 mM MgCl2, 21 C, ~5 nM FAM duplex; ITC same buffer at 25 C; SEC-MALS 150 mM NaCl
[17] = tested on: S9.6 Fab HC_S31G, PDB:7TQB_1+PDB:7TQB_2; experiment: fluorescence polarization; settings: FP: 25 mM Tris-HCl pH 7.5, 50 mM NaCl, 2 mM MgCl2, 21 C, ~5 nM FAM duplex; ITC same buffer at 25 C; SEC-MALS 150 mM NaCl
[18] = tested on: S9.6 Fab HC_Y32A, PDB:7TQB_1+PDB:7TQB_2; experiment: fluorescence polarization; settings: FP: 25 mM Tris-HCl pH 7.5, 50 mM NaCl, 2 mM MgCl2, 21 C, ~5 nM FAM duplex; ITC same buffer at 25 C; SEC-MALS 150 mM NaCl
[19] = tested on: S9.6 Fab HC_Y54D, PDB:7TQB_1+PDB:7TQB_2; experiment: fluorescence polarization; settings: FP: 25 mM Tris-HCl pH 7.5, 50 mM NaCl, 2 mM MgCl2, 21 C, ~5 nM FAM duplex; ITC same buffer at 25 C; SEC-MALS 150 mM NaCl

CGTGTCAGACAAG / CTUGUCUGACACG
Kd ([1]; table fit 20.6 +/- 5.8 uM, RNA strand: deoxy at positions 2, 4, 6, 8, 10, 12 (12 inferred, name is cut in the material)): > 21000 nM

CGGACGGACG / CGUCCGUCCG [10-bp hybrid 80% GC]
Kd [2]: 570 nM

CGTGTCAGACAAG / CTTGTCUGACACG [13-bp dsDNA with 2'-OH at U7-G8-A9]
Kd ([1]; text: Kd > 7 uM, weakly bound, strand 2: ribonucleotides at positions 7-9, rest DNA): 7000 nM

CUUGUCUGACACG / CGUGUCAGACAAG [13-bp dsRNA]
IC50 [3]: 57000 nM | Kd ([1]; 2 mM Mg2+): 3790 nM | Kd [4]: 2350 nM | Kd [5]: 8300 nM | Kd [6]: 4300 nM | Kd [7]: 3990 nM | Kd [8]: 4530 nM | Kd [9]: 1640 nM | Kd [10]: 1910 nM | Kd [11]: 1610 nM | Kd [12]: 11800 nM

CGTGTCTGACAAG / CUUGUCAGACACG [13-bp hybrid rU7A:dA7T]
Kd [2]: 110 nM

CGTGTCAGACAAG / CUUGUCUGACACG [13-bp DNA-RNA hybrid]
Kd [13]: 415 nM | IC50 [3]: 450 nM | binding signal (fold lower binding than WT) [14]: < 2 | binding signal (fold lower affinity than WT) [15]: 58 | Kd ([1]; 2 mM Mg2+): 232 nM | Kd [16]: 140 nM | Kd [17]: 170 nM | Kd [18]: 25400 nM | Kd [4]: 2650 nM | Kd [19]: 5160 nM | Kd [5]: 400 nM | Kd [6]: 360 nM | Kd [9]: 730 nM | Kd [10]: 150 nM | Kd [12]: 760 nM | Kd ([2]; 2 mM Mg2+): 190 nM

CGUGUCAGACAAG / CUUGUCUGACACG [13-bp hybrid, 2'-OH at dT3-dG4-dT5-dC6-dA7]
Kd ([2]; DNA strand: ribonucleotides at positions 3-7): 100 nM

CGTGTCAGACAAG / CUTGUCUGACACG
Kd ([1]; RNA strand: deoxy at positions 3, 6, 9, 12): 380 nM

CGGCCGGACG / CGUCCGGCCG [10-bp hybrid 90% GC]
Kd [2]: 1020 nM

CGGACGGACA / UGUCCGUCCG [10-bp hybrid 70% GC]
Kd [2]: 420 nM

CAGACGGACA / UGUCCGUCUG [10-bp hybrid 60% GC]
Kd [2]: 610 nM

CAGACAGACA / UGUCUGUCUG [10-bp hybrid 50% GC]
Kd [2]: 3110 nM

CGTGUCAGACAAG / CUUGUCUGACACG [13-bp hybrid, 2'-OH (uridine) at dT5]
Kd ([2]; DNA strand: ribo-U at position 5): 140 nM
